Consider seven substances from article PMC3273806.

Experiment [1] has as its target human RAD18, wild type, His-tagged or FLAG-tagged (human) (UniProt Q9NS91). The experiment can be described thus: quantitative SDS-PAGE.
Experiment [2] concerns the target RAD18^ΔC1 (residues 1-341), His-tagged or FLAG-tagged (human) (UniProt Q9NS91). The experiment can be described thus: quantitative SDS-PAGE.
The target in experiment [3] is ^HisRAD18^ΔN1 (residues 113-495) (human) (UniProt Q9NS91). The experiment can be described thus: quantitative SDS-PAGE.
^HisRAD18^ΔN1 (residues 113-495) (human), sequence (Q9NS91 113-495, stated change not applied): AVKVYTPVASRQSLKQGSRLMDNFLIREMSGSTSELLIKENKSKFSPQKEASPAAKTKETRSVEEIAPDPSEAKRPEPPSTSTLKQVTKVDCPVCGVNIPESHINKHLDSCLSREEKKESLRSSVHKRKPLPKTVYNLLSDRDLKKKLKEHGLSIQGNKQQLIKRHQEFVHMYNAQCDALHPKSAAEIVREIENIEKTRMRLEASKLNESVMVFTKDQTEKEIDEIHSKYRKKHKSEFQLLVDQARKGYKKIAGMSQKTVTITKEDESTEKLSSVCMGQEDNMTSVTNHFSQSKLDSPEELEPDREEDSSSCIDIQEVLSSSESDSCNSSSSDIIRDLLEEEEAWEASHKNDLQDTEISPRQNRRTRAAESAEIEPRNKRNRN
The target in experiment [4] is FLAG-tagged RAD18 expressed in human cells (human) (UniProt Q9NS91). Nature of the experiment: quantitative western blotting against a reference complex.
FLAG-tagged RAD18 expressed in human cells (human), sequence (Q9NS91 whole entry): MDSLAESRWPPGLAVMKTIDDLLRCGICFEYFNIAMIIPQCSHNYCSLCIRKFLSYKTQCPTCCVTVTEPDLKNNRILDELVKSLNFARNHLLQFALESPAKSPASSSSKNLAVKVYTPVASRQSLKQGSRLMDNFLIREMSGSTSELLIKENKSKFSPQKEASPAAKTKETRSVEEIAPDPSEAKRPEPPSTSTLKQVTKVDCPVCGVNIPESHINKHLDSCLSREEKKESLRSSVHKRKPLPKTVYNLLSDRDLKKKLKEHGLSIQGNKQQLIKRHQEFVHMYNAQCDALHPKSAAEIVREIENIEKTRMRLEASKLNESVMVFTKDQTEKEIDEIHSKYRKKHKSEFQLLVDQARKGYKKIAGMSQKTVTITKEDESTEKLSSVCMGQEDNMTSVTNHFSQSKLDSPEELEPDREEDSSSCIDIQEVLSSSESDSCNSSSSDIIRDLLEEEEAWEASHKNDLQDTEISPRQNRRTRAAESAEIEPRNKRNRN
The target of experiment [5] is untagged RAD18 expressed in human cells (human) (UniProt Q9NS91). The experiment is described as above.
untagged RAD18 expressed in human cells (human), sequence (Q9NS91 whole entry): as above

human RAD18, wild type, His-tagged or FLAG-tagged, sequence (Q9NS91 whole entry): as above
FLAG-tagged RAD18 expressed in human cells, sequence (Q9NS91 whole entry): as above
human RAD18, wild type, His-tagged or FLAG-tagged (human), sequence (Q9NS91 whole entry, the tested form may be a part): as the sequence (Q9NS91 whole entry) above
untagged RAD18 expressed in human cells, sequence (Q9NS91 whole entry): as above
HA-tagged RAD6A expressed in human cells, sequence (P49459 whole entry): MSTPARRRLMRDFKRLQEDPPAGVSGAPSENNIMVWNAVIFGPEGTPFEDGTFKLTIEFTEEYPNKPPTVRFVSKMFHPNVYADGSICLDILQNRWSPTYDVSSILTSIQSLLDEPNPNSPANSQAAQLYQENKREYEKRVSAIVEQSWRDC
FLAG-tagged human RAD6A, sequence (P49459 whole entry): as above
untagged RAD6A expressed in human cells, sequence (P49459 whole entry): as above
human RAD6A, sequence (P49459 whole entry): as above
RAD18^ΔC1 (residues 1-341), His-tagged or FLAG-tagged (human), sequence (Q9NS91 1-341, stated change not applied): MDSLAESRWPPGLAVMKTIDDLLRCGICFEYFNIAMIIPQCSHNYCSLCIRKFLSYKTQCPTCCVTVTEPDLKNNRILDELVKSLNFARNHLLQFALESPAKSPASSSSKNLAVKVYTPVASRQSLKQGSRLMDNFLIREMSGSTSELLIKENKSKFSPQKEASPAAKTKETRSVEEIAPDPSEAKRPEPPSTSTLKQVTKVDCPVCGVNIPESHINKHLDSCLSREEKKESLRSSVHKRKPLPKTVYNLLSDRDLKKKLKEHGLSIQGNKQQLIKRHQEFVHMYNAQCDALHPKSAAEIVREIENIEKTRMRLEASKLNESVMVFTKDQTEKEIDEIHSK

Consider “human RAD18, wild type, His-tagged or FLAG-tagged (from UniProt Q9NS91 1-495) (enzyme)”, for which the ratio of HisRAD18 to FLAGRAD18 in the complex (HisRAD18 per FLAGRAD18) in experiment [1] was 1. In experiment [2], this substance had a stoichiometry N (FLAGRAD18 per HisRAD18ΔC1) of 1. In experiment [1], “FLAG-tagged human RAD6A (from UniProt P49459 1-152) (enzyme)” showed a stoichiometry N (RAD6A per RAD18) of 0.5.

Consider “human RAD6A (from UniProt P49459 1-152) (enzyme)”, for which the stoichiometry N (RAD6A per HisRAD18ΔN1) in experiment [3] amounted to 1. In experiment [4], “FLAG-tagged RAD18 expressed in human cells (from UniProt Q9NS91 1-495) (enzyme)” came in with a stoichiometry N of 2.

“HA-tagged RAD6A expressed in human cells (from UniProt P49459 1-152) (enzyme)”: the stoichiometry N (RAD6A per RAD18) in experiment [4] was found to be 0.5. In the case of “untagged RAD18 expressed in human cells (from UniProt Q9NS91 1-495) (enzyme)”, the stoichiometry N in experiment [5] worked out at 2. “untagged RAD6A expressed in human cells (from UniProt P49459 1-152) (enzyme)” gave a stoichiometry N (RAD6A per RAD18) in experiment [5] of 0.5.
